Test results as given in patent US20060141529.

Target: T1, Cortactin isoform 2 (recombinant, purified from baculovirally infected insect cells)
T1 chain: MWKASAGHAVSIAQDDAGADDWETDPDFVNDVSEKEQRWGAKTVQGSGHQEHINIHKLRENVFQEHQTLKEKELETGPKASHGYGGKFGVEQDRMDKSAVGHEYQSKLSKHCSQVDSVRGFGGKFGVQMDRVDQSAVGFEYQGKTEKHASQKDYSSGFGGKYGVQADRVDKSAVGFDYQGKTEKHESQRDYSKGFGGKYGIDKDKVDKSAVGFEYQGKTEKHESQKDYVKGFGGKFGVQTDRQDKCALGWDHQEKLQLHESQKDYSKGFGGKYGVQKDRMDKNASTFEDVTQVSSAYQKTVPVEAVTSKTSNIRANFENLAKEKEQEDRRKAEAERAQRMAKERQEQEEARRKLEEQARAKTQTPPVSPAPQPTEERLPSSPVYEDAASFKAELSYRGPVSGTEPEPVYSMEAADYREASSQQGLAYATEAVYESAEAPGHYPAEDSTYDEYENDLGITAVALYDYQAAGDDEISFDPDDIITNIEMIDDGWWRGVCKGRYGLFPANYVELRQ

B1: ARG, wild type, constructed from mouse cDNA (recombinant) (protein)
chain: MGQQVGRVGEAPGLQQPQPRGIRGSSAARPSGRRRDPAGRTADAGFNVFTQHDHFASCVEDGFEGDKTGGSSPEVLHRPFGCDAESQALNEAIRWSSKENLLGATESDPNLFVALYDFVASGDNTLSITKGEKLRVLGYNQNGEWSEVRSKNGQGWVPSNYITPVNSLEKHSWYHGPVSRSAAEYLLSSLINGSFLVRESESSPGQLSISLRYEGRVYHYRINTTTDSKVYVTAESRFSTLAELVHHHSTVADGLVTTLHYPAPKCNKPTVYGVSPIHDKWEMERTDITMKHKLGGGQYGEVYVGVWKKYSLTVAVKTFKEDTMEVEEFLKEAAVMKEIKHPNLVQLLGVCTLEPPFYIVTEYMPYGNLLDYLRECSREEVTAVVLLYMATQISSAMEYLEKKNFIHRDLAARNCLVGENHVVKVADFGLSRLMTGDTYTAHAGAKFPIKWTAPESLAYNTFSIKSDVWAFGVLLWEIATYGMSPYPGIDLSQVYDLLEKGYRMEQPEGCPPKVYELMRACWKWSPADRPSFAETHQAFETMFHDSSISEEVAEELGRTASSSSVVPYLPRLPLLPSKTRTLRKQGENKENLDGGLDAAESLASSSAPAGFIRSTQASSGSPALPRKQRDKSPSSLLEDAKETCFTRDRKGGFFSSFMKKRNAPTPPKRSSSFREMENQPHKKYELTGNFSPVASLQNADGFSVAPSQQEPNLVPAKCYGGSFAQRNLCADDDSGGGGGSGTAGGGWSGITGFFTPRLIKKTLGLRAGKPTASDDTSKPFPRSNSTSSMSSGLPEQDRMAMTLPRNCQRSKLQLERTVSTSSQPEENVDRANDMLPKKSEEGAAPARERPKAKLLPRGATALPLRAPDPAITESDSPGVGVAGVAAAPKGKERNGGTRLGVAGVPEDGEQLGWSSPAKAVAVLPTTHNHKVPVLISPTLKHTPADVQLIGTDSQGNKFKLLSEHQVTSSGDKDRPRRVKPKCAPPPPPVMRLLQHPSTCSDPEEEPTAPPAGQHTPETQEGGKKAAPGPVPSSGKPGRPVMPPPQVPLPTSSISPAKMANGTAGTKVALRKTKQAAEKISADKISKEALLECADLLSSAITEPVPNSQLVDTGHQLLDYCSGYVDSIPQTRNKFAFREAVSKLELSLQELQVSSTAAGVPGTNPVLNNLLSCVQEISDVVQR
For B1, which “KM (steady-state in vitro kinase assay)” value is on record?
The value was “KM of 110 nM and 60 nM for ABL and ARG, respectively”.

And the “kcat (steady-state in vitro kinase assay)” value?
The value was “The kcat for ABL and ARG is 0.05 min-1”.
